Data reported in patent US20200079833A1 (AstraZeneca / MedImmune, published 2020).
Starred links: 1 amine or outer side, 2 acyl side, 3 side chain; linkers in the order of their positions; H or OH if unused. Non-standard residues stand in square brackets, D forms with d. Groups on a side chain read outwards from the residue. Primed or numbered codes have the meaning given here. No end group written: not given here. *: point of attachment. γGlu = O=C(O)[C@H](CCC(=O)[*:2])N[*:1]; Stearoyl = CCCCCCCCCCCCCCCCCC(=O)*; Palmitoyl = CCCCCCCCCCCCCCCC(=O)*; αMeF = C[C@](N)(Cc1ccccc1)C(=O)O; αMeK = C[C@](N)(CCCCN)C(=O)O; αMeS = C[C@](N)(CO)C(=O)O; PEG2′ = not defined here; Aib = CC(C)(N)C(=O)O

T1: glucose-dependent insulinotropic peptide (gastric inhibitory polypeptide) receptor (human, UniProt P48546 22-466)
T1 sequence (looked up): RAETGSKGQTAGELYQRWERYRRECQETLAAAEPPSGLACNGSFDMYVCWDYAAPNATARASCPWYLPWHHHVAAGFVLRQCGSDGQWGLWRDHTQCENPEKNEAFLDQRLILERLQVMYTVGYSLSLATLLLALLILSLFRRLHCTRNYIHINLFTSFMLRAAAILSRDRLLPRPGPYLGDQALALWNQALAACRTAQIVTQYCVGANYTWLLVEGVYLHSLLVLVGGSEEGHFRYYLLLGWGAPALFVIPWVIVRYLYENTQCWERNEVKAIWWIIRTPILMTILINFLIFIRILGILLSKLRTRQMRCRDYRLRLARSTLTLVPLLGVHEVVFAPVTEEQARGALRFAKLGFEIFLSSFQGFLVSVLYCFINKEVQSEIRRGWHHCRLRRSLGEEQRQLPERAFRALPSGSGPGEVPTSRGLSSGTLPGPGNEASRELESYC


Tests used:
Assay in all cases: cell-based or functional assay
GLP-1 receptor = GLP-1 receptor (human, UniProt P43220 24-463)
glucagon receptor = glucagon receptor (human, UniProt P47871 26-477)
Chain of glucagon receptor (P47871 26-477): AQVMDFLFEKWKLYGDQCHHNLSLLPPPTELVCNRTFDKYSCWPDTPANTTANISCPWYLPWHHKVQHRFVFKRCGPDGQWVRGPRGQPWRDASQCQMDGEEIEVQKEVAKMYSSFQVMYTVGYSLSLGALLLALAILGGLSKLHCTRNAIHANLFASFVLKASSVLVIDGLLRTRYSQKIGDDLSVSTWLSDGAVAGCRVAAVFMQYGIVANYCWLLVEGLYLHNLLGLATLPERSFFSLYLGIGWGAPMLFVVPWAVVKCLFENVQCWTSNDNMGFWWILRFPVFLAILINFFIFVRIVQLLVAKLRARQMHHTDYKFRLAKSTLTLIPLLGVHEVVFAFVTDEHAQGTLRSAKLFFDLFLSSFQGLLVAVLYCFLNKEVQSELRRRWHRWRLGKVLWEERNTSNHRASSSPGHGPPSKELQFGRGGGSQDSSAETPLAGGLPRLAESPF

[1] = biological target: T1, glucose-dependent insulinotropic …

Primary assay EC50 (cAMP), Mean pM GLP-1R (GLP-1 receptor) [pM] | Primary assay EC50 (cAMP), n1 (GLP-1 receptor) [pM] | Primary assay EC50 (cAMP), n2 (GLP-1 receptor) [pM] | Primary assay EC50 (cAMP), n1 (glucagon receptor) [nM] | Primary assay EC50 (cAMP), n2 (glucagon receptor) [nM] | Primary assay EC50 (cAMP), n1 [1] [nM] | Primary assay EC50 (cAMP), n2 [1] [nM] | Binder
6.7 | 6.5 | 6.9 | 31 | 31 | 31 | 31 | H[Aib]EGS[αMeF]TSDV[αMeS]S[αMeF]LEGEAAEE[αMeF]IA[αMeF]VVEGG-NH2 (N-terminus assumed; SMILES CC[C@H](C)[C@H](NC(=O)[C@](C)(Cc1ccccc1)NC(=O)[C@H](CCC(=O)O)NC(=O)[C@H](CCC(=O)O)NC(=O)[C@H](C)NC(=O)[C@H](C)NC(=O)[C@H](CCC(=O)O)NC(=O)CNC(=O)[C@H](CCC(=O)O)NC(=O)[C@H](CC(C)C)NC(=O)[C@](C)(Cc1ccccc1)NC(=O)[C@H](CO)NC(=O)[C@](C)(CO)NC(=O)[C@@H](NC(=O)[C@H](CC(=O)O)NC(=O)[C@H](CO)NC(=O)[C@@H](NC(=O)[C@](C)(Cc1ccccc1)NC(=O)[C@H](CO)NC(=O)CNC(=O)[C@H](CCC(=O)O)NC(=O)C(C)(C)NC(=O)[C@@H](N)Cc1c[nH]cn1)[C@@H](C)O)C(C)C)C(=O)N[C@@H](C)C(=O)N[C@@](C)(Cc1ccccc1)C(=O)N[C@H](C(=O)N[C@H](C(=O)N[C@@H](CCC(=O)O)C(=O)NCC(=O)NCC(N)=O)C(C)C)C(C)C) [SEQ ID NO 44]
8.7 | 6.9 | 11 | 31 | 31 | 31 | 31 | H[Aib]EGS[αMeF]TSDV[αMeS]S[αMeF]LEGEAAEE[αMeF]IA[αMeF]VV[αMeK]GG-NH2 (N-terminus assumed; SMILES CC[C@H](C)[C@H](NC(=O)[C@](C)(Cc1ccccc1)NC(=O)[C@H](CCC(=O)O)NC(=O)[C@H](CCC(=O)O)NC(=O)[C@H](C)NC(=O)[C@H](C)NC(=O)[C@H](CCC(=O)O)NC(=O)CNC(=O)[C@H](CCC(=O)O)NC(=O)[C@H](CC(C)C)NC(=O)[C@](C)(Cc1ccccc1)NC(=O)[C@H](CO)NC(=O)[C@](C)(CO)NC(=O)[C@@H](NC(=O)[C@H](CC(=O)O)NC(=O)[C@H](CO)NC(=O)[C@@H](NC(=O)[C@](C)(Cc1ccccc1)NC(=O)[C@H](CO)NC(=O)CNC(=O)[C@H](CCC(=O)O)NC(=O)C(C)(C)NC(=O)[C@@H](N)Cc1c[nH]cn1)[C@@H](C)O)C(C)C)C(=O)N[C@@H](C)C(=O)N[C@@](C)(Cc1ccccc1)C(=O)N[C@H](C(=O)N[C@H](C(=O)N[C@@](C)(CCCCN)C(=O)NCC(=O)NCC(N)=O)C(C)C)C(C)C) [SEQ ID NO 42]
389 | 350 | 430 | 100 | 100 | 100 | 100 | H[Aib]EGS[αMeF]TSEVSS[αMeF]LEGEAA[αMeK]E[αMeF]IA[αMeF]VV[αMeK]GG-NH2 (N-terminus assumed; SMILES CC[C@H](C)[C@H](NC(=O)[C@](C)(Cc1ccccc1)NC(=O)[C@H](CCC(=O)O)NC(=O)[C@](C)(CCCCN)NC(=O)[C@H](C)NC(=O)[C@H](C)NC(=O)[C@H](CCC(=O)O)NC(=O)CNC(=O)[C@H](CCC(=O)O)NC(=O)[C@H](CC(C)C)NC(=O)[C@](C)(Cc1ccccc1)NC(=O)[C@H](CO)NC(=O)[C@H](CO)NC(=O)[C@@H](NC(=O)[C@H](CCC(=O)O)NC(=O)[C@H](CO)NC(=O)[C@@H](NC(=O)[C@](C)(Cc1ccccc1)NC(=O)[C@H](CO)NC(=O)CNC(=O)[C@H](CCC(=O)O)NC(=O)C(C)(C)NC(=O)[C@@H](N)Cc1c[nH]cn1)[C@@H](C)O)C(C)C)C(=O)N[C@@H](C)C(=O)N[C@@](C)(Cc1ccccc1)C(=O)N[C@H](C(=O)N[C@H](C(=O)N[C@@](C)(CCCCN)C(=O)NCC(=O)NCC(N)=O)C(C)C)C(C)C) [SEQ ID NO 7]
33 | 33 | 33 | 27 | 27 | 27 | 27 | H[Aib]EGS[αMeF]TSDVSS[αMeF]LEGEAAKE[αMeF]IA[αMeF]VVKGGK([γGlu-Palmitoyl])-NH2 (N-terminus assumed; SMILES CCCCCCCCCCCCCCCC(=O)N[C@@H](CCC(=O)NCCCC[C@H](NC(=O)CNC(=O)CNC(=O)[C@H](CCCCN)NC(=O)[C@@H](NC(=O)[C@@H](NC(=O)[C@](C)(Cc1ccccc1)NC(=O)[C@H](C)NC(=O)[C@@H](NC(=O)[C@](C)(Cc1ccccc1)NC(=O)[C@H](CCC(=O)O)NC(=O)[C@H](CCCCN)NC(=O)[C@H](C)NC(=O)[C@H](C)NC(=O)[C@H](CCC(=O)O)NC(=O)CNC(=O)[C@H](CCC(=O)O)NC(=O)[C@H](CC(C)C)NC(=O)[C@](C)(Cc1ccccc1)NC(=O)[C@H](CO)NC(=O)[C@H](CO)NC(=O)[C@@H](NC(=O)[C@H](CC(=O)O)NC(=O)[C@H](CO)NC(=O)[C@@H](NC(=O)[C@](C)(Cc1ccccc1)NC(=O)[C@H](CO)NC(=O)CNC(=O)[C@H](CCC(=O)O)NC(=O)C(C)(C)NC(=O)[C@@H](N)Cc1c[nH]cn1)[C@@H](C)O)C(C)C)[C@@H](C)CC)C(C)C)C(C)C)C(N)=O)C(=O)O) [SEQ ID NO 39]
0.6 | 0.45 | 0.71 | 31 | 31 | 31 | 31 | H[Aib]EGS[αMeF]TSDV[αMeS]S[αMeF]LEGEAA[αMeK]E[αMeF]IA[αMeF]VVEGG-NH2 (N-terminus assumed; SMILES CC[C@H](C)[C@H](NC(=O)[C@](C)(Cc1ccccc1)NC(=O)[C@H](CCC(=O)O)NC(=O)[C@](C)(CCCCN)NC(=O)[C@H](C)NC(=O)[C@H](C)NC(=O)[C@H](CCC(=O)O)NC(=O)CNC(=O)[C@H](CCC(=O)O)NC(=O)[C@H](CC(C)C)NC(=O)[C@](C)(Cc1ccccc1)NC(=O)[C@H](CO)NC(=O)[C@](C)(CO)NC(=O)[C@@H](NC(=O)[C@H](CC(=O)O)NC(=O)[C@H](CO)NC(=O)[C@@H](NC(=O)[C@](C)(Cc1ccccc1)NC(=O)[C@H](CO)NC(=O)CNC(=O)[C@H](CCC(=O)O)NC(=O)C(C)(C)NC(=O)[C@@H](N)Cc1c[nH]cn1)[C@@H](C)O)C(C)C)C(=O)N[C@@H](C)C(=O)N[C@@](C)(Cc1ccccc1)C(=O)N[C@H](C(=O)N[C@H](C(=O)N[C@@H](CCC(=O)O)C(=O)NCC(=O)NCC(N)=O)C(C)C)C(C)C) [SEQ ID NO 43]
1170 | 1800 | 570 | 85 | 26 | 85 | 26 | H[Aib]EGS[αMeF]TSDVSS[αMeF]LEGEAAK([PEG2′-PEG2′-γGlu-Stearoyl])E[αMeF]IA[αMeF]VVKGG-NH2 [SEQ ID NO 40]
147 | 240 | 51 | 94 | 28 | 94 | 28 | H[Aib]EGS[αMeF]TSDVSS[αMeF]LEGEAAK([γGlu-Palmitoyl])E[αMeF]IA[αMeF]VVKGG-NH2 (N-terminus assumed; SMILES CCCCCCCCCCCCCCCC(=O)N[C@@H](CCC(=O)NCCCC[C@H](NC(=O)[C@H](C)NC(=O)[C@H](C)NC(=O)[C@H](CCC(=O)O)NC(=O)CNC(=O)[C@H](CCC(=O)O)NC(=O)[C@H](CC(C)C)NC(=O)[C@](C)(Cc1ccccc1)NC(=O)[C@H](CO)NC(=O)[C@H](CO)NC(=O)[C@@H](NC(=O)[C@H](CC(=O)O)NC(=O)[C@H](CO)NC(=O)[C@@H](NC(=O)[C@](C)(Cc1ccccc1)NC(=O)[C@H](CO)NC(=O)CNC(=O)[C@H](CCC(=O)O)NC(=O)C(C)(C)NC(=O)[C@@H](N)Cc1c[nH]cn1)[C@@H](C)O)C(C)C)C(=O)N[C@@H](CCC(=O)O)C(=O)N[C@@](C)(Cc1ccccc1)C(=O)N[C@H](C(=O)N[C@@H](C)C(=O)N[C@@](C)(Cc1ccccc1)C(=O)N[C@H](C(=O)N[C@H](C(=O)N[C@@H](CCCCN)C(=O)NCC(=O)NCC(N)=O)C(C)C)C(C)C)[C@@H](C)CC)C(=O)O) [SEQ ID NO 41]
1560 | 920 | 2200 | 26 | 26 | 26 | 26 | H[Aib]EGS[αMeF]TSDVSS[αMeF]LEGEAAK([PEG2′-PEG2′-γGlu-Stearoyl])E[αMeF]IA[αMeF]VV[αMeK]GG-NH2 [SEQ ID NO 46]
3560 | 3800 | 3300 | 26 | 26 | 26 | 26 | H[Aib]EGSFTSDV[αMeS]S[αMeF]LEGEAAK([PEG2′-PEG2′-γGlu-Stearoyl])E[αMeF]IA[αMeF]VV[αMeK]GG-NH2 [SEQ ID NO 45]
